Columns and labels:
[1] = system: DC2.4 cells; experiment: Polyubiquitination of antigen taken up by DC2.4 cells (Western blot, anti-polyubiquitin antibody); format: cell-based, mouse; conditions: CHIP-knocked-down DC2.4 (C4) vs parental DC2.4
[2] = target: T1, Sec61α (Mus musculus, UniProt P61620); experiment: Co-immunoprecipitation of bOVA with anti-Sec61α; format: binding; conditions: DC2.4 cells incubated with bOVA
T1 construct: endogenous in cells; host or cells: DC2.4 mouse dendritic cell line
T1 sequence (P61620 whole entry): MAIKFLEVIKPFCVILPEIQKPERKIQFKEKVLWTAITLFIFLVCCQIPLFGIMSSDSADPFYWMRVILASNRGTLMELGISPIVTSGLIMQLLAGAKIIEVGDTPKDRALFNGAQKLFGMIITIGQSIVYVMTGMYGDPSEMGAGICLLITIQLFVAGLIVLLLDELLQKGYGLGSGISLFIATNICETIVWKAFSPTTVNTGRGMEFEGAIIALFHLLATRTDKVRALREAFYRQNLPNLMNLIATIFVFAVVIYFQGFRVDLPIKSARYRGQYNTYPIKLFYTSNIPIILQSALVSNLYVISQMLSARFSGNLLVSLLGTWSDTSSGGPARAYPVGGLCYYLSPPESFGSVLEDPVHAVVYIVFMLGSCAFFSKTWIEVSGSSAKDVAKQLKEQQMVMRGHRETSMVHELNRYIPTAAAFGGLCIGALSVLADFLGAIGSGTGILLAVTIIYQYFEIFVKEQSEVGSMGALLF
T1 sequence (Q9CQS8 2-96 partner limits assumed): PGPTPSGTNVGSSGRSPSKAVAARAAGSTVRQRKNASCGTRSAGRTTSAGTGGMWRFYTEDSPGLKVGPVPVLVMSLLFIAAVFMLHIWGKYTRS
T1 sequence (P60060 whole entry partner): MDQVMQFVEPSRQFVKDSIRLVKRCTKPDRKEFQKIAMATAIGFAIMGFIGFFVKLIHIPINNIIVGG
Procedure: (§1) 2×10^7 DC2.4 or BMDC cells were cultured for four hours in a medium containing 10 μM MG-132 in the presence of bOVA at 250 μg mL^−1. Cells were lysed in 20 mM HEPES pH7.6 containing 1% digitonin and protease inhibitors to collect biotin-labeled samples. The samples were cleared of impurities in advance using protein G sepharose (Amersham Pharmacia Biotech), and after incubation with antibodies for precipitation (anti-Sec61β, anti Sec61α, anti-VCP, anti-BiP, anti-PDI, anti-calreticulin, anti-TAP1, and anti-TAP2), the immunoprecipitates were collected using protein G. When chicken anti-CHIP antibody was used, immunoprecipitates were collected using a rabbit anti-IgY column (a person, MBL). The precipitated samples were analyzed by SDS-PAGE and Western blotting.

[3] = target: T2, TAP1 (Mus musculus, UniProt P21958); experiment: Co-immunoprecipitation of bOVA with anti-TAP1; format: binding; conditions: DC2.4 cells incubated with bOVA
T2 construct: endogenous in cells; host or cells: DC2.4 mouse dendritic cell line
T2 sequence (P21958 1-724): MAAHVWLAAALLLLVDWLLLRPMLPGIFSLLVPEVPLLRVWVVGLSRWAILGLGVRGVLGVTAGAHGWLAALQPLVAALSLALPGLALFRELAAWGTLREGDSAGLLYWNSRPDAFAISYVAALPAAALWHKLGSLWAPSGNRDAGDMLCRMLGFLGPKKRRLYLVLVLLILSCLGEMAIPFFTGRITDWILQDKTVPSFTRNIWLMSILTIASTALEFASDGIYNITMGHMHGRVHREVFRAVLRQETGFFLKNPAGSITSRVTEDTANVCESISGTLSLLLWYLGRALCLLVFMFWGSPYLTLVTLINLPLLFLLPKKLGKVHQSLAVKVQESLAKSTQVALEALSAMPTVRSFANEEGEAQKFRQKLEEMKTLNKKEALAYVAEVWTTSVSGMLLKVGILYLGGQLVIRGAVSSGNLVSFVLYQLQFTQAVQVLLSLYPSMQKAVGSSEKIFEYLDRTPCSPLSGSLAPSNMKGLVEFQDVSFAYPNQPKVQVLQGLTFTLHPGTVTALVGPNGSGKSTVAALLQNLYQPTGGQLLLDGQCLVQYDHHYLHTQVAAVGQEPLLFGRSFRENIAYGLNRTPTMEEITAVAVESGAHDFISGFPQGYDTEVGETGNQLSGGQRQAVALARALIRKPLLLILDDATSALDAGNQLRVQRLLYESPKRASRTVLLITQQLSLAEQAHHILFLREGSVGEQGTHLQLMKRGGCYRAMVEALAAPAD
Procedure: as §1

[4] = target: T3, BiP (Mus musculus, UniProt P20029); experiment: Co-immunoprecipitation of bOVA with anti-BiP; format: binding; conditions: DC2.4 cells incubated with bOVA
T3 construct: BiP, an endogenous ER protein, was detected in the same microsomal fraction; endogenous in cells; host or cells: DC2.4 mouse dendritic cell line
T3 sequence (P20029 20-655): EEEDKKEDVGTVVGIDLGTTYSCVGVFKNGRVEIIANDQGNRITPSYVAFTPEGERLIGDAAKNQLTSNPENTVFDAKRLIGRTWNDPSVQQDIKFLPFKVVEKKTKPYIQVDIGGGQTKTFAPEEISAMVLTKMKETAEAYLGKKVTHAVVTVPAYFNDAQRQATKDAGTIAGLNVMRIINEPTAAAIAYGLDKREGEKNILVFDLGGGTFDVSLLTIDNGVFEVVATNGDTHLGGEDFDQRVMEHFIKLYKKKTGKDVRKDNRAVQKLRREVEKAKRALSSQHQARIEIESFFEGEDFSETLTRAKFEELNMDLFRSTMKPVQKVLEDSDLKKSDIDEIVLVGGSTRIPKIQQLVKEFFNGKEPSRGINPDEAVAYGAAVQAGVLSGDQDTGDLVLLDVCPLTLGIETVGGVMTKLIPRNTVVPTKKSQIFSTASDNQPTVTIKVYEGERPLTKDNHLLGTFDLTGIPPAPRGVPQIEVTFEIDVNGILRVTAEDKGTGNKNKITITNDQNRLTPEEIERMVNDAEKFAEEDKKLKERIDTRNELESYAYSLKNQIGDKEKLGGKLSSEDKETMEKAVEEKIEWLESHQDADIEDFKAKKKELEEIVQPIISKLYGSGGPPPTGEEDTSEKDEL
Procedure: as §1

[5] = target: T4, TAP2 (Mus musculus, UniProt P36371); experiment: Co-immunoprecipitation of bOVA with anti-TAP2; format: binding; conditions: DC2.4 cells incubated with bOVA
T4 construct: endogenous in cells; host or cells: DC2.4 mouse dendritic cell line
T4 sequence (P36371 1-702): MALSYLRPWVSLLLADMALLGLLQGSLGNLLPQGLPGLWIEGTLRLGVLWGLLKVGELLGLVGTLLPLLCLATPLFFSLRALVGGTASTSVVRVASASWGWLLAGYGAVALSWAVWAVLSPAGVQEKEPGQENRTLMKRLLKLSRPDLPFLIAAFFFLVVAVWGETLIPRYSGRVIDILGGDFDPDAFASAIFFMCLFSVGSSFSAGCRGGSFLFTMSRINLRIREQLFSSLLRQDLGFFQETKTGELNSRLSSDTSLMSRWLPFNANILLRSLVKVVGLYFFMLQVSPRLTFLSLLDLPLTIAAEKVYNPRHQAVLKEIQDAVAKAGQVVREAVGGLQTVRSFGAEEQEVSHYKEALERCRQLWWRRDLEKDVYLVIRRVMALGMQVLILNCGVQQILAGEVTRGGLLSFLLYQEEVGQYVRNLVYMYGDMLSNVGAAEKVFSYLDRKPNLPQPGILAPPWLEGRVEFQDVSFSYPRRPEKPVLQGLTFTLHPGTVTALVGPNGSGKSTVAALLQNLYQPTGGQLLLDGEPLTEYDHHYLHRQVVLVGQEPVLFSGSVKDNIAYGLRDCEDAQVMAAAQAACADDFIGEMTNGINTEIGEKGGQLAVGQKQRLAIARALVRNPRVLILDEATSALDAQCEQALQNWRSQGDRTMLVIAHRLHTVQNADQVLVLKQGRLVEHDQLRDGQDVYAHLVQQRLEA
T4 sequence (P21958 1-724 partner): T2 sequence (P21958 1-724)
Procedure: as §1

[6] = target: T5, VCP (Mus musculus, UniProt Q01853); experiment: Co-immunoprecipitation of bOVA with anti-VCP; format: binding
T5 construct: endogenous in cells; host or cells: DC2.4 mouse dendritic cell line; bone marrow-derived dendritic cells
T5 sequence (Q01853 2-806 limits assumed): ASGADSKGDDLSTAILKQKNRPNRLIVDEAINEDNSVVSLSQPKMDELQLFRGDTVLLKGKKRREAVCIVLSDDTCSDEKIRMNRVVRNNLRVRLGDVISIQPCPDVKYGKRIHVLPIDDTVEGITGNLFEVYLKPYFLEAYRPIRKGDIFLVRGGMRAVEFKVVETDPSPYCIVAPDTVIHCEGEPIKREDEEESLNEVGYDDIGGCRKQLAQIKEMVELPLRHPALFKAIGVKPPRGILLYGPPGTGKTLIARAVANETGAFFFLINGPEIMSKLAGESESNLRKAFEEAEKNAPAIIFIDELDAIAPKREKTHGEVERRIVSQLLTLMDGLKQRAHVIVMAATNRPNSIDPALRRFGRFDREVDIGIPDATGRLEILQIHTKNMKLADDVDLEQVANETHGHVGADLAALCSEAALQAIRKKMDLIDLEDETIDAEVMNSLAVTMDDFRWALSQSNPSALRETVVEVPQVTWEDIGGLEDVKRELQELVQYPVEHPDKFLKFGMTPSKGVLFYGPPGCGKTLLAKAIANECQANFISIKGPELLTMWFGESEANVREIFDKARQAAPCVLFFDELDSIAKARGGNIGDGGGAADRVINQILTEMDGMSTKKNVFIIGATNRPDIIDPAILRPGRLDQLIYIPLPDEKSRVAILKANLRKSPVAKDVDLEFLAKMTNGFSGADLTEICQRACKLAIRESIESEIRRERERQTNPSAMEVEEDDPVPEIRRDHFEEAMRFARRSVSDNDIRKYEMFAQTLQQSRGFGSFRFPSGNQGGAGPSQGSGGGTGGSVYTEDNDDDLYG
Procedure: as §1

[7] = system: DC2.4 cells
Procedure: Intracellular localization of foreign antigens was examined by cell fractionation methods. Chicken ovalbumin (OVA) was used as an antigen model, and DC2.4 (haplotype H-2 Kb), a cultured cell line of mouse dendritic cells, was used as a model for dendritic cells. […] BMDCs with a haplotype of H-2 Kb, the same as that of DC2.4, were used as the control. BMDCs were induced from the bone marrow cells of C57BL/6 mice (SLC) in RPMI-1640 supplemented with 5% FCS using 5 ng/mL GM-CSF (MBL), and those cells purified by magnetic beads after five days of culturing were used.
DC2.4 cells made to take up bOVA antigens were suspended in 10 mM Tris-HCl (pH7.4) containing 250 mM sucrose, this was homogenized using glass beads, centrifuged for 30 minutes at 250,000×g, and then fractionated. The supernatant was used as the soluble fraction; the precipitates were suspended in the same buffer as described above and used as the microsomal fraction. A fixed amount was incubated in the presence or absence of 1% TritonX-100, and together with or without 100 μg mL^−1 trypsin. Before collecting bOVA, soybean trypsin inhibitor (Sigma) was added at 500 μg mL^−1.

[8] = system: OT-I CD8+ T cells; experiment: Antigen presentation level: IL-2 production by OT-I CD8+ T cells (ELISA); format: cell-based, mouse; conditions: DC2.4, dose-response OVA vs bOVA
From the text: Whether knock-down of cellular components involved in ERAD decreases the cross-presentation of exogenous OVA antigen was examined using a system for evaluating the level of antigen presentation, which uses naive CD8^+ T cells from OT-I mice and DC2.4 cells. The DC2.4 cells used as a model of dendritic cells are of the H-2 Kb mouse MHC class I haplotype. OT-I (H-2 Kb) mice are transgenic mice expressing a T cell receptor (TCRα and β) that recognizes an antigenic peptide (SIINFEKL) (SEQ ID NO: 15) derived from OVA presented on the H-2 Kb molecules. The CD8^+ cells of OT-I mice are activated when they recognize OVA peptides presented by BMDCs derived from H-2 Kb mice or by DC2.4 cells. When OVA or bOVA is incubated with and affixed onto DC2.4 cells and the cells are further incubated with naive CD8^+ T cells of OT-I mice, the amount of IL-2 produced by OT-I CD8^+ T cells serves as an index of T-cell stimulation as a result of OVA antigen presented by DC2.4 cells.
Parental or knocked-down DC2.4 cells were pre-incubated in a culture medium supplemented with 50 μg mL^−1 polymyxin B for 30 minutes in the presence or absence of lactacystin or MG-132, and incubated with OVA (250 μg mL^−1) or SIINFEKL (SEQ ID NO: 15) peptides (10 ng mL^−1) for six hours. The cells were washed, fixed with 1% paraformaldehyde, and aliquoted into microtiter plates (5×10^4 per well). 5×10^4 CD8^+ T cells purified from splenocytes of OT-1 mice using magnetic beads were added to each well and after a 24-hour incubation, the IL-2 secretion was measured by ELISA (BD Biosciences) in triplicate. […]

B1: bOVA: biotin-labeled OVA antigen (protein)
chain: GSIGAASMEFCFDVFKELKVHHANENIFYCPIAIMSALAMVYLGAKDSTRTQINKVVRFDKLPGFGDSIEAQCGTSVNVHSSLRDILNQITKPNDVYSFSLASRLYAEERYPILPEYLQCVKELYRGGLEPINFQTAADQARELINSWVESQTNGIIRNVLQPSSVDSQTAMVLVNAIVFKGLWEKAFKDEDTQAMPFRVTEQESKPVQMMYQIGLFRVASMASEKMKILELPFASGTMSMLVLLPDEVSGLEQLESIINFEKLTEWTSSNVMEERKIKVYLPRMKMEEKYNLTSVLMAMGITDVFSSSANLSGISSAESLKISQAVHAAHAEINEAGREVVGSAEAGVDAASVSEEFRADHPFLFCIKHIATNAVLFFGRCVSP
- polyubiquitination of bOVA in CHIP-knocked-down cells [1]: 34%
- interaction with Sec61α (co-immunoprecipitation) [2]: interacts
- interaction with TAP1 (co-immunoprecipitation) [3]: does not interact
- interaction with BiP (co-immunoprecipitation) [4]: interacts
- interaction with TAP2 (co-immunoprecipitation) [5]: does not interact
- interaction with VCP (co-immunoprecipitation) ([6]; BMDCs): interacts
- interaction with VCP (co-immunoprecipitation) ([6]; DC2.4 cells incubated with bOVA): interacts
- bOVA taken up by cells recovered as trypsin-resistant bOVA from the microsomal fraction [7]: ≥ 70%
- antigenicity for stimulation of CD8+ OT-I T cells (IL-2 production) [8]: equally antigenic
